Measurements: the supplement of paper PMC10567573

B1: APBB1IP (parent)
chain: FNYSVGFKDLNESLNALEDQDLDA
B2: NP_015628.1 (parent)
chain: EQRNSRWNTVLRAVKAKTHHLEP

Variants of: B1
Assay: protein stability index of a GFP-peptide fusion (GPS, HEK-293T) (PSI 1-6); higher = more stable
Settings: c terminus: a fixed tail appended

Going from N2D to N2A, the protein stability index falls from 5.38 to 2.07.

Going from N2E to N2C, the protein stability index falls from 4.45 to 2.18.

Compared with F1I, F1P is higher in protein stability index: 4.43 for the first, 5.21 for the second.

Going from F1V to F1C, the protein stability index rises from 4.66 to 4.79.

Compared with F1R, F1Y is lower in protein stability index: 5.42 for the first, 4.91 for the second.

First: F1A
Second: F1L
The protein stability index of the first is higher: 5 for the first, 4.7 for the second.

Going from F1Q to F1K, the protein stability index falls from 5.38 to 4.39.

Compared with F1N, F1G is lower in protein stability index: 5.51 for the first, 4.72 for the second.

Compared with F1S, F1H is higher in protein stability index: 4.44 for the first, 5.05 for the second.

First: F1D
Second: F1W
The protein stability index of the first is higher: 5.74 for the first, 4.53 for the second.

Going from F1M to F1T, the protein stability index rises from 5.31 to 5.35.

F1E showed a protein stability index of 5.53.

Variants of: B2
Assay: as above
Settings: c terminus: native

First: T9A
Second: T9L
The protein stability index of the first is higher: 3.31 for the first, 2.91 for the second.

First: T9S
Second: T9G
The protein stability index of the first is lower: 3.31 for the first, 3.94 for the second.

Going from T9C to R12P, the protein stability index rises from 3 to 3.05.

Compared with R12D, R12Y is higher in protein stability index: 2.44 for the first, 2.5 for the second.

First: R12Q
Second: R12L
The protein stability index of the first is lower: 2.71 for the first, 2.76 for the second.

First: R12G
Second: E1M
The protein stability index of the first is lower: 2.78 for the first, 2.95 for the second.

First: E1H
Second: Q2D
The protein stability index of the first is lower: 2.91 for the first, 3.43 for the second.

Going from Q2L to Q2K, the protein stability index falls from 2.84 to 2.71.

Compared with Q2M, Q2W is lower in protein stability index: 3.12 for the first, 2.78 for the second.

Going from Q2C to Q2P, the protein stability index rises from 2.93 to 3.06.

First: Q2H
Second: L21I
The protein stability index of the first is lower: 3.12 for the first, 3.59 for the second.

Compared with L21A, L21T is higher in protein stability index: 4.09 for the first, 4.26 for the second.

Compared with L21V, L21Q is higher in protein stability index: 4.29 for the first, 4.55 for the second.

Going from L21D to P23T, the protein stability index rises from 4.04 to 4.13.

Compared with P23A, P23L is higher in protein stability index: 4.32 for the first, 4.39 for the second.

First: P23F
Second: P23M
The protein stability index of the first is higher: 4.51 for the first, 4.09 for the second.

First: P23H
Second: N8F
The protein stability index of the first is higher: 4.88 for the first, 2.8 for the second.

Going from N8W to N8E, the protein stability index falls from 2.78 to 1.92.

First: N8Q
Second: N8S
The protein stability index of the first is lower: 2.06 for the first, 2.28 for the second.

First: N8D
Second: N8T
The protein stability index of the first is higher: 2.52 for the first, 2.16 for the second.

Going from V10R to V10P, the protein stability index rises from 2.77 to 4.13.

First: A13Y
Second: A13H
The protein stability index of the first is higher: 3.1 for the first, 2.94 for the second.

Going from A13C to A13E, the protein stability index falls from 3.08 to 2.24.

First: A13M
Second: A13R
The protein stability index of the first is higher: 3.28 for the first, 2.57 for the second.

Going from A13N to K17Q, the protein stability index falls from 3.06 to 2.67.

Compared with K17N, K17E is higher in protein stability index: 2.69 for the first, 2.77 for the second.

Going from K17I to K17S, the protein stability index rises from 2.61 to 2.85.

Compared with W7K, W7N is lower in protein stability index: 5.46 for the first, 4.83 for the second.

Compared with W7V, W7G is higher in protein stability index: 4.88 for the first, 5.71 for the second.

Going from K15Y to K15R, the protein stability index falls from 3.25 to 3.08.

Compared with K15F, K15E is higher in protein stability index: 2.9 for the first, 3.25 for the second.

Going from K15P to K15L, the protein stability index falls from 3.14 to 3.07.

Compared with V14M, V14N is higher in protein stability index: 3.07 for the first, 3.1 for the second.

Going from V14A to V14K, the protein stability index rises from 3.23 to 3.44.

First: V14Q
Second: V14C
The protein stability index of the first is higher: 2.85 for the first, 2.73 for the second.

First: V14H
Second: V14F
The protein stability index of the first is higher: 3.06 for the first, 2.87 for the second.

Compared with S5V, S5Y is lower in protein stability index: 2.43 for the first, 2.38 for the second.

Going from S5E to S5C, the protein stability index falls from 2.91 to 2.46.

Compared with S5T, S5K is lower in protein stability index: 2.93 for the first, 2.28 for the second.

Compared with S5L, A16S is higher in protein stability index: 2.48 for the first, 3.24 for the second.

Going from A16F to A16R, the protein stability index falls from 3.02 to 2.77.

Compared with A16H, A16G is lower in protein stability index: 2.98 for the first, 2.77 for the second.

Going from A16T to L11W, the protein stability index rises from 2.78 to 3.69.

First: L11A
Second: L11I
The protein stability index of the first is higher: 3.95 for the first, 2.51 for the second.

Compared with L11Y, L11R is higher in protein stability index: 3.5 for the first, 5.15 for the second.

Going from L11D to H20V, the protein stability index falls from 4.52 to 3.46.

Compared with H20A, H20W is higher in protein stability index: 2.81 for the first, 3.46 for the second.

Compared with H20P, H20E is lower in protein stability index: 3.89 for the first, 3.19 for the second.

First: R3W
Second: R3Y
The protein stability index of the first is lower: 2.7 for the first, 3.7 for the second.

Compared with R3Q, R3N is higher in protein stability index: 2.71 for the first, 3.07 for the second.

First: R3T
Second: R3V
The protein stability index of the first is lower: 2.9 for the first, 2.99 for the second.

First: R3C
Second: R3G
The protein stability index of the first is lower: 3.3 for the first, 3.58 for the second.

Going from T18H to T18M, the protein stability index rises from 2.76 to 2.83.

Going from T18G to T18W, the protein stability index rises from 3.12 to 3.57.

First: T18N
Second: T18L
The protein stability index of the first is lower: 2.82 for the first, 3.13 for the second.

Compared with T18F, T18V is lower in protein stability index: 3.33 for the first, 3.12 for the second.

Compared with T18R, N4R is lower in protein stability index: 3.11 for the first, 2.96 for the second.

Compared with N4C, N4V is higher in protein stability index: 2.73 for the first, 2.96 for the second.

Compared with N4T, N4E is higher in protein stability index: 3.23 for the first, 3.37 for the second.

First: N4G
Second: N4Q
The protein stability index of the first is higher: 3.71 for the first, 3.1 for the second.

Going from N4Y to N4F, the protein stability index rises from 3.16 to 3.17.

First: N4S
Second: E22F
The protein stability index of the first is lower: 3.05 for the first, 3.55 for the second.

Going from E22K to E22I, the protein stability index falls from 4.85 to 2.45.

Going from E22M to E22G, the protein stability index rises from 2.84 to 3.09.

Going from E22W to E22N, the protein stability index rises from 3.6 to 4.48.

Going from E22R to R6T, the protein stability index rises from 2.26 to 2.48.

Compared with R6V, R6N is lower in protein stability index: 3.23 for the first, 2.67 for the second.

Compared with R6K, R6L is higher in protein stability index: 2.67 for the first, 2.97 for the second.

Compared with R6H, H19E is higher in protein stability index: 3.45 for the first, 3.75 for the second.

Compared with H19Y, H19F is higher in protein stability index: 3.07 for the first, 3.66 for the second.

Compared with H19L, H19D is higher in protein stability index: 3.43 for the first, 3.81 for the second.

Going from H19I to H19Q, the protein stability index rises from 3.44 to 3.73.
